# In paper PMC7652391:
# Target: Mature human mitochondrial heat shock protein family D member 1 (HSPD1) (human), P10809
# Assay: cryo-EM structure; single-particle cryoEM of reconstituted oligomeric HSPD1; grids by TED (6 and 50 ms), chameleon (54 ms) and Vitrobot (6 s blot); 50 mM Tris, 300 mM NaCl, 10 mM MgCl2 pH 8; consensus reconstructions in C1 and C7 symmetry
# Conditions: remark: other sources report otherwise
binder,measurement,value
"Mature human mitochondrial heat shock protein family D member 1 (HSPD1), P10809 27-573 (natural protein) AKDVKFGADARALMLQGVDLLADAVAVTMGPKGRTVIIEQSWGSPKVTKDGVTVAKSIDLKDKYKNIGAKLVQDVANNTNEEAGDGTTTATVLARSIAKEGFEKISKGANPVEIRRGVMLAVDAVIAELKKQSKPVTTPEEIAQVATISANGDKEIGNIISDAMKKVGRKGVITVKDGKTLNDELEIIEGMKFDRGYISPYFINTSKGQKCEFQDAYVLLSEKKISSIQSIVPALEIANAHRKPLVIIAEDVDGEALSTLVLNRLKVGLQVVAVKAPGFGDNRKNQLKDMAIATGGAVFGEEGLTLNLEDVQPHDLGKVGEVIVTKDDAMLLKGKGDKAQIEKRIQEIIEQLDVTTSEYEKEKLNERLAKLSDGVAVLKVGGTSDVEVNEKKDRVTDALNATRAAVEEGIVLGGGCALLRCIPALDSLTPANEDQKIGIEIIKRTLKIPAMTIAKNAGVEGSLIVEKIMQSSSEVGYDAMAGDFVNMVEKGIIDPTKVVRTALLDAAGVASLLTTAEVVVTEIPKEEKDPGMGAMGGMGGGMGGGMF",stoichiometry N,7
